Measured values taken from US20110268755A1 (HEALTH RESEARCH, published 2011).

What was measured:
HLA-A*0201 [1] = biological target: T1, HLA-A*0201 (human); assay: competitive peptide binding assay, displacement of fluorescently labeled HPV18-27 from HLA-A*0201
T1 construct: also called human MHC class I; MHC I
Excerpt: To obtain the data summarized in FIGS. 4A and 4B, survivin peptide epitopes were used in MHC class I peptide competitive displacement assays. […] Positive control peptides (Flu & gp100) represent known immunogenic MHC class I ligands. Data represent mean fluorescence±S.E.M. of triplicate samples.

HLA-A*0201 [2] = biological target: T1, HLA-A*0201; assay: survivin/MHC Class I-specific HLA-A*0201 pentamer binding
H2-K^b = biological target: T2, H2-K^b (mouse, UniProt P01887 21-119; P01901 22-369, limits assumed); assay: H2-K^b upregulation on RMA-S cells, 100 µM peptide, 37° C.
T2 construct: whole, on cells; also called murine MHC class I
T2 sequence (MHC heavy, looked up): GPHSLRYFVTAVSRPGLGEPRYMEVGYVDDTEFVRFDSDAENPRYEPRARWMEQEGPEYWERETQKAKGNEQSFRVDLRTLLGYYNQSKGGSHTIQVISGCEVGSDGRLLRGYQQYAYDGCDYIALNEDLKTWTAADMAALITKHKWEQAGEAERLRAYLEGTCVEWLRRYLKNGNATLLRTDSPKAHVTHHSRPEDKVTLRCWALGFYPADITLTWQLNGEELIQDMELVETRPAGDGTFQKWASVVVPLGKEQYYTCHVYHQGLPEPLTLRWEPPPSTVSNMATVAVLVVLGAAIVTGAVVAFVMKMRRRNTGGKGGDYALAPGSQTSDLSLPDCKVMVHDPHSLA
T2 sequence (b2m, looked up): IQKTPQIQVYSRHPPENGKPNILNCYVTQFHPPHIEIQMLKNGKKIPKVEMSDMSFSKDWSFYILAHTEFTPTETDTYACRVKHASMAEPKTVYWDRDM
Protocol: To obtain the data presented in FIG. 3, survivin peptide epitopes were used in conventional MHC class I peptide binding assays. Mean fluorescence in FIG. 3 represents binding of SVN peptides to H2-K^b. Upregulation of H2-K^b molecules on the surface of murine RMA-S cells which are deficient in the expression of surface MHC class I molecules was used to determine actual survivin peptide binding in vitro. Data presented in FIG. 3 represent the binding of 100 μM peptide at 37° C.

DLAQCFFCFKELEGW [wild type SVN53-67]
binding result (HLA-A*0201 [1]): binds

B1: SVN53-67/M57 (peptide)
peptide: DLAQMFFCFKELEGW
notes: also called Survivin M57; Survivin-53-67/57M
fold stronger binding than wild type SVN53-67 (HLA-A*0201 [1]): ~12 fold

QCFFCFKEL [wild type SVN56-64]
binding result (HLA-A*0201 [2]): binds

QMFFCFKEL (also called core peptide SVN56-64/M57) [SVN56-64/M57]
fold stronger binding than wild type SVN56-64 (HLA-A*0201 [2]): ~73 fold

TLGEFLKL [SVN97-104]
binding result (H2-K^b): binds

CFFCFKEL (also called SVN 57-64 wt) [SVN-57-64]
binding result (H2-K^b): binds

MFFCFKEL [SVN-57-64/M57]
binding result (H2-K^b): binds
